Source: PMC13708078, “Development of a GRPR-Targeted ^99mTc/^188Re Theranostic Pair Based on NOTA-P2-RM26” (Pharmaceutics, 2026)

Test: in vivo
Set-up: species or system mice
Details: female, Swiss Albino SCID, mouse, iv, total radioactivity
Method: PC-3 xenografts were established in female Swiss Albino SCID mice, aged 7–8 weeks. After acclimatization, animals were injected subcutaneously into the right shoulder/upper-flank region with freshly harvested PC-3 cells suspended in PBS. Each animal received 5 × 10^6 cells. Tumors were allowed to grow for approximately three weeks until palpable solid tumors were formed. At the time of the experiments, tumor volumes ranged from 200 to 400 mm^3. Animals were then randomly assigned to experimental groups.
Biodistribution studies were performed at 30 min and 1 h post injection (p.i.). […] The injected volume was 100 μL, and the injected activity was approximately 100 kBq per animal. Animals weighed 21 ± 2 g on the day of the experiment. For in vivo blocking studies, a separate group of animals received non-radioactive NOTA-P2-RM26 (50 μg) 5 min prior to the radiotracer injection. Blocking animals were euthanized at 1 h p.i. At the selected time points, animals were euthanized. Blood, tumors, organs, and tissues of interest were collected, weighed, and measured for radioactivity using the gamma counter. The stomach and intestines were measured without content. […] Data were decay-corrected and expressed as a percentage of injected activity per gram of tissue (%IA/g). Urine/bladder and gastrointestinal/fecal content were expressed as a percentage of injected activity (%IA).

## CC(C)C[C@H](NC(=O)C[C@H](O)[C@H](CC(C)C)NC(=O)[C@H](Cc1c[nH]cn1)NC(=O)CNC(=O)[C@@H](NC(=O)[C@H](C)NC(=O)[C@H](Cc1c[nH]c2ccccc12)NC(=O)[C@H](CCC(N)=O)NC(=O)[C@@H](Cc1ccccc1)NC(=O)COCCOCCNC(=O)CN1CCN(CC(=O)O)CCN(CC(=O)O)CC1)C(C)C)C(N)=O [^99mTc2, fac-[^99mTc][Tc(CO)3(NOTA-P2-RM26)], metal not drawn]
Bone uptake
  tissue uptake at 1 h: 0.18 ± 0.07 %ID/g
Pancreatic uptake
  tissue uptake at 1 h: 3 ± 0.35 %ID/g
